Test results: PMC10444775 (Scientific Reports, 2023)

Target: SARS-CoV-2 PreS Spike ECD protein, biotinylated via a C-terminal Avi tag (SARS-CoV-2, Wuhan wild type, K986P | V987P | 682-685 RRAR to GSAS, biotin on the Avi tag)
Experiment: SPR
Settings: both partners purified

B1: 7A9 VHH (VHH)
VHH: QVQLVESGGGLVQAGGSLRLSCSASGGTASRSAMGWFRQAPGKEREFVAGISRRNSGSTYVADSYEDSVKGRFTISRDNAKNTIYLQMNSLKPEDTAVYYCAAEPTLGWYVPRRSVEYEYWGQGTQVTVSS
notes: also called VHH 7A9; 7A9 VHH monomer; source: ExpiCHO, transiently transfected, purified
B1 showed a Kd of 0.22 nM.
